Experimental findings from paper PMC2788773 (Molecular cell, 2009) are described below.

Holding throughout (test): pull-down
One assay addresses T1, His6-S-Rad54-T132A (S. cerevisiae (budding yeast), UniProt P32863 1-898, T132A).
T1 sequence (looked up): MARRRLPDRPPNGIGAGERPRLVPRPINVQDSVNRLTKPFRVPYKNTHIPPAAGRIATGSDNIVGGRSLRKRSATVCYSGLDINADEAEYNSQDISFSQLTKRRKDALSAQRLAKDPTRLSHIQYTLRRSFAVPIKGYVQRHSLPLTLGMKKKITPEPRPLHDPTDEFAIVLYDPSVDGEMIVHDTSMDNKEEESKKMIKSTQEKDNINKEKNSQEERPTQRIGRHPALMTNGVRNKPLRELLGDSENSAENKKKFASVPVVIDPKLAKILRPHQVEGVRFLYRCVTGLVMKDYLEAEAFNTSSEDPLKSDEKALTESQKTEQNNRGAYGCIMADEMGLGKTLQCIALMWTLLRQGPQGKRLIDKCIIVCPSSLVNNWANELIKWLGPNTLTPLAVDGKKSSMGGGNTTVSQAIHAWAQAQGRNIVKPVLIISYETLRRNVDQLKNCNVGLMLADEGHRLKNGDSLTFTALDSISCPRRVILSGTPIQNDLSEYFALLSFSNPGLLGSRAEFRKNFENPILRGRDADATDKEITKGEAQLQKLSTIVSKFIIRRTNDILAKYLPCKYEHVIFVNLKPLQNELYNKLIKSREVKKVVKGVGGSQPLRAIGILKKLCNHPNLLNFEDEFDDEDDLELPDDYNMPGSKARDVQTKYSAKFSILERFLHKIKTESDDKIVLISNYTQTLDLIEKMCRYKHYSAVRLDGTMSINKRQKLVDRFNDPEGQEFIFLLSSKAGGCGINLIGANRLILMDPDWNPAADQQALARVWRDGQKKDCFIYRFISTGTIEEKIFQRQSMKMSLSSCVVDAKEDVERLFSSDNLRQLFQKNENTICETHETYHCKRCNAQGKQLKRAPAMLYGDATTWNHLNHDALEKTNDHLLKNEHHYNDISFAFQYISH

The target in the next assay is T2, His6-S-Rad54-T132D (S. cerevisiae (budding yeast), UniProt P32863 1-898, T132D).
T2 sequence (looked up): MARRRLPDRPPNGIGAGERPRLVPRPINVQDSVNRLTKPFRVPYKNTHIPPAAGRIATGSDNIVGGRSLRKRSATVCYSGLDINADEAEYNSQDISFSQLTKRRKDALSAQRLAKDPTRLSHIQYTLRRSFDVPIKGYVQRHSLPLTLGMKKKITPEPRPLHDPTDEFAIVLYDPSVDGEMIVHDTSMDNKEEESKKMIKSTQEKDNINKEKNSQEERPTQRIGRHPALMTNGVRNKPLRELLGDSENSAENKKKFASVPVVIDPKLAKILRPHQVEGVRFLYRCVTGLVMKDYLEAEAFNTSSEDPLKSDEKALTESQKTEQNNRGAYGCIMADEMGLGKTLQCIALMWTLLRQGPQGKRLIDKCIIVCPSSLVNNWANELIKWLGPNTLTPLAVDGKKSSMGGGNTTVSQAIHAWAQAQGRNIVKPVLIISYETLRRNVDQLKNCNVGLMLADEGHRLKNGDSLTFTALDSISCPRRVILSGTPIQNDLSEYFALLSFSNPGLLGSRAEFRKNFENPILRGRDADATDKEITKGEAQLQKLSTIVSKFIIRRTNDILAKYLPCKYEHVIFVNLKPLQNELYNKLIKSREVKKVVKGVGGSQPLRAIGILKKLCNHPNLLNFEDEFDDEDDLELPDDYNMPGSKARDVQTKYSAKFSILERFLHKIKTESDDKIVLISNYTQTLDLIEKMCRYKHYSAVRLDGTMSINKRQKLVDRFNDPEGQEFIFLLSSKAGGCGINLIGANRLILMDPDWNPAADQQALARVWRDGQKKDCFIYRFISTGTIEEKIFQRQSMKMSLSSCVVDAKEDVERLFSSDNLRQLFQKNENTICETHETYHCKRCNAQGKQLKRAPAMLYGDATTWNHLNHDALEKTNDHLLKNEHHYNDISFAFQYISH

For the next assay, the target named is T3, His6-S-Rad54 (S. cerevisiae (budding yeast), UniProt P32863 1-898).
T3 sequence (looked up): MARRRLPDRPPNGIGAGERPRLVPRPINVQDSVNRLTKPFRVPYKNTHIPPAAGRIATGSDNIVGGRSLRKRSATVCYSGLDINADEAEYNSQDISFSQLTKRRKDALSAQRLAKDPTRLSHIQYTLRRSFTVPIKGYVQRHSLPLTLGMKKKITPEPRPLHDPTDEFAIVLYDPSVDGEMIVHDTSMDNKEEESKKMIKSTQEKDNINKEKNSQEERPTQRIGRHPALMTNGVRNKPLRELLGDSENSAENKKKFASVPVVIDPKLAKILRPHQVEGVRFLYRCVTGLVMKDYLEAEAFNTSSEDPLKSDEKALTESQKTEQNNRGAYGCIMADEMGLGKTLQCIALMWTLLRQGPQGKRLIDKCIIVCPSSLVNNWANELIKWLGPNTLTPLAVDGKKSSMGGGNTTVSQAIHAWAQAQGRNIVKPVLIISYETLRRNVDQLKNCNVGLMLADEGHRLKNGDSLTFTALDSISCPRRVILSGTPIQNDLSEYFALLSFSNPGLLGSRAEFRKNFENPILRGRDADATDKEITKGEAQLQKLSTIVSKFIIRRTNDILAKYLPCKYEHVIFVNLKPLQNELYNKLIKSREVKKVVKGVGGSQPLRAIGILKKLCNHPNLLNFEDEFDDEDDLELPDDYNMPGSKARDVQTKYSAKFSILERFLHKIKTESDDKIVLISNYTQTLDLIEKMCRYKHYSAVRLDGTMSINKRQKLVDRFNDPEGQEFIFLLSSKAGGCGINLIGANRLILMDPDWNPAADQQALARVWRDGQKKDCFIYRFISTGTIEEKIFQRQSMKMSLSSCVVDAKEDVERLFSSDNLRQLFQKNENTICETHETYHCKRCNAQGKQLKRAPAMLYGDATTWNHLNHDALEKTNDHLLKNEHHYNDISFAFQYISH

B1: Rad51 (natural protein, S. cerevisiae (budding yeast), UniProt P25454 1-400, looked up)
chain: MSQVQEQHISESQLQYGNGSLMSTVPADLSQSVVDGNGNGSSEDIEATNGSGDGGGLQEQAEAQGEMEDEAYDEAALGSFVPIEKLQVNGITMADVKKLRESGLHTAEAVAYAPRKDLLEIKGISEAKADKLLNEAARLVPMGFVTAADFHMRRSELICLTTGSKNLDTLLGGGVETGSITELFGEFRTGKSQLCHTLAVTCQIPLDIGGGEGKCLYIDTEGTFRPVRLVSIAQRFGLDPDDALNNVAYARAYNADHQLRLLDAAAQMMSESRFSLIVVDSVMALYRTDFSGRGELSARQMHLAKFMRALQRLADQFGVAVVVTNQVVAQVDGGMAFNPDPKKPIGGNIMAHSSTTRLGFKKGKGCQRLCKVVDSPCLPEAECVFAIYEDGVGDPREEDE
As to B1, the binding result in the assay with His6-S-Rad54-T132A and with His6-S-Rad54 was “binds” each time. Besides, the “fold reduction in Rad51 binding compared to Rad54” value with His6-S-Rad54-T132D was found to be 2 fold.
